Experimental data published in paper PMC3026782, “The Cytoskeletal Protein Ndel1 Regulates Dynamin 2 GTPase Activity” (PLoS ONE, 2011).

Assays:
[1] = biological target: T1, GST-Dyn2 F5 (GTPase+middle+PH+GED domains); experiment: cell-based or functional assay
T1 chain: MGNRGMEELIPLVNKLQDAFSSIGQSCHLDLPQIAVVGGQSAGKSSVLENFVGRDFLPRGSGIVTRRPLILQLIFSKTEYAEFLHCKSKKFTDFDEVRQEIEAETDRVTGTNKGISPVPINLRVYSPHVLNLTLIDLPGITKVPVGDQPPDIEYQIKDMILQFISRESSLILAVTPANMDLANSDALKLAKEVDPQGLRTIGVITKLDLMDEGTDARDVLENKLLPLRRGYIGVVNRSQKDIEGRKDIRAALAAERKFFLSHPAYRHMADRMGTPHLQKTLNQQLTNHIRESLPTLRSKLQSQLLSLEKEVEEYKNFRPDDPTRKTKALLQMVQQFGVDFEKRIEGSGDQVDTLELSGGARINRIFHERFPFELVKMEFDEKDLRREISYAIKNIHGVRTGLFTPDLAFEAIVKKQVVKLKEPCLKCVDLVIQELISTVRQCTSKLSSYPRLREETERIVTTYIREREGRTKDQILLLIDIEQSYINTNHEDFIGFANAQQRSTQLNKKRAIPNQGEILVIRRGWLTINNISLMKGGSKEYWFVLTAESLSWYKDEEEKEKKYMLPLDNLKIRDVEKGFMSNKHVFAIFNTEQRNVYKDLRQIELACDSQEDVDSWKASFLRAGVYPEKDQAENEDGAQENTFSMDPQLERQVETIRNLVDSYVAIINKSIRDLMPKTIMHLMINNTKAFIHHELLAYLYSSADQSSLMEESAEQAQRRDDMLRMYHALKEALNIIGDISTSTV

GST-fused Dyn2 = biological target: T2, GST-fused Dyn2 (UniProt P50570 1-870); experiment: cell-based or functional assay
T2 sequence (looked up): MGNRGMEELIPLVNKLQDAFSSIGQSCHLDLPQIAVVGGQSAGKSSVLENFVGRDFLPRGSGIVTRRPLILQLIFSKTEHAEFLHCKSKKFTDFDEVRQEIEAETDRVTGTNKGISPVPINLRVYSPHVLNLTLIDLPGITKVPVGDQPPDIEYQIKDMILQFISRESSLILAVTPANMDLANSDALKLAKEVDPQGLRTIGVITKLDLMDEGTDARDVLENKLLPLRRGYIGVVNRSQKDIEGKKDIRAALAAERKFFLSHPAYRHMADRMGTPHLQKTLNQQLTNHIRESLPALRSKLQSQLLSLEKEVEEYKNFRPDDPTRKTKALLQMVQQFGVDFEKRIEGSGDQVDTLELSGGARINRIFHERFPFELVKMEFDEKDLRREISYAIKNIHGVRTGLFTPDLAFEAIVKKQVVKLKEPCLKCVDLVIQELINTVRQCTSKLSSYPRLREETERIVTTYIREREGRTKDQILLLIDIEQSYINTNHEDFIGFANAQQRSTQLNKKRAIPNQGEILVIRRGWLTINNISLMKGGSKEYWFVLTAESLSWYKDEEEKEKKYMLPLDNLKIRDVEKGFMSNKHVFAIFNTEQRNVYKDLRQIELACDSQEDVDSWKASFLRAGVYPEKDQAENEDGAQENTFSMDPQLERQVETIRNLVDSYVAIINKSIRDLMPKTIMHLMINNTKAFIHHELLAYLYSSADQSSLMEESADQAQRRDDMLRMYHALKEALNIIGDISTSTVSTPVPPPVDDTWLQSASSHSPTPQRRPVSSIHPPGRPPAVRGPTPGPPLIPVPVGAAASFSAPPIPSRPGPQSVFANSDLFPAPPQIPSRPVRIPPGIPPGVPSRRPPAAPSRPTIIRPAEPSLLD

- non-radioactive (ELIPA) GTPase assay of F5 with against without Ndel1 [1]: ~1.3 fold
- radioactive GTPase assay: hydrolysis of GTP into GDP by Dyn2 oligomers (low salt) with against without Ndel1, over 60 minutes (GST-fused Dyn2): ~2 fold
B1: His-tagged Ndel1 (natural protein, UniProt Q9GZM8 1-345, looked up)
chain: MDGEDIPDFSSLKEETAYWKELSLKYKQSFQEARDELVEFQEGSRELEAELEAQLVQAEQRNRDLQADNQRLKYEVEALKEKLEHQYAQSYKQVSVLEDDLSQTRAIKEQLHKYVRELEQANDDLERAKRATIVSLEDFEQRLNQAIERNAFLESELDEKESLLVSVQRLKDEARDLRQELAVRERQQEVTRKSAPSSPTLDCEKMDSAVQASLSLPATPVGKGTENTFPSPKAIPNGFGTSPLTPSARISALNIVGDLLRKVGALESKLAACRNFAKDQASRKSYISGNVNCGVLNGNGTKFSRSGHTSFFDKGAVNGFDPAPPPPGLGSSRPSSAPGMLPLSV
